According to patent US20030180295A1, “Angiocidin: a Cys-Ser-Val-Thr-Cys-Gly specific tumor cell adhesion receptor” (Philadelphia Health and Education Corporation, priority 1999, published 2003):
No end group written: not given here. *: point of attachment. Acm = CC(=O)NC*

Columns and labels:
receptor = target: T1, receptor (Homo sapiens, UniProt P55036, INS254GER); assay: Affinity Sensor System: receptor binding to TSP-1 and Cys(Acm)-Ser-Val-Thr-Cys(Acm)-Gly; conditions: Example 8, FIG. 11
T1 construct: Full length cDNA cloned in the PBK-CMV vector was used as a template; 6xHis (pTrcHisA leader) (N); made in house; host or cells: bacteria (pTrcHisA vector)
T1 sequence (P55036 with tags, fused parts or gaps INS254GER): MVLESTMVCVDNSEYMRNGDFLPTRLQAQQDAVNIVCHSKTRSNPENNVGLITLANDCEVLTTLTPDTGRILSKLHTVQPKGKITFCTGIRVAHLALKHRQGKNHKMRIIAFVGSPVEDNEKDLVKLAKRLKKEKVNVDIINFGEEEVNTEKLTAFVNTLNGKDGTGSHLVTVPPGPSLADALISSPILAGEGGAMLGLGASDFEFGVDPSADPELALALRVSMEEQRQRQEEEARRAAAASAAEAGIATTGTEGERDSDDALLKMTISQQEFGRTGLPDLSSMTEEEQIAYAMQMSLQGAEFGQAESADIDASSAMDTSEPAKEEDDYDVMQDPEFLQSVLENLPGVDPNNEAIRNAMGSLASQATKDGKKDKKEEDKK
Procedure: (§1) Binding of undenatured (in the ligand blot protocol above, the receptor is denatured by SDS) recombinant receptor to TSP-1 was evaluated using the Affinity Sensor System, Cambridge, UK. This is an optical binding method that uses a cuvette to which either ligand or receptor is covalently coupled. A laser beam is used to detect bound proteins to the protein-derivatized cuvette surface. This method is highly sensitive and measures both the association and dissociation rate constants for ligand receptor interactions. The instrument assumes that one molecule of receptor binds one molecule of TSP-1 and calculates the dissociation constant (KD) according to the following relationships:
The methodology set forth in Example 6 was followed except that TSP-1 and Cys(Acm)-Ser-Val-Thr-Cys(Acm)-Gly (SEQ ID NO: 6) were immobilized on cuvettes and the receptor was added to the cuvettes. The Acm version of the peptide was used to increase its stability in the experiment.

[1] = target: T2, biotin-angiocidin complex binding to TSP-1 (Homo sapiens, UniProt P55036, INS254GER); assay: Biotin-avidin receptor binding assay: competition; conditions: Example 25, peptide 1 mg/ml, FIG. 32
T2 sequence (P55036 with tags, fused parts or gaps INS254GER): T1 sequence (P55036 with tags, fused parts or gaps INS254GER)
Procedure: In the following experiments, TSP-1 was covalently bound to a substrate, biotinylated angiocidin was added to the plate, and avidin-peroxidase was added to measure how much biotinylated angiocidin was attached to the TSP-1. The avidin-peroxidase was measured using a spectrophotometer at an absorbance of 450 nm.
Free angiocidin was added to the system to compete with the biotinylated angiocid in. […] Immobilized BSA was used as a negative control.
The TSP-1 peptide Cys-Ser-Val-Thr-Cys-Gly (SEQ ID NO: 1) was added to the system to compete with the TSP-1 on the plate for binding with the biotinylated angiocidin. The scrambled peptide Val-Cys-Thr-Gly-Ser-Cys (SEQ ID NO: 15) was used as a negative control and had no effect.
The avidin-biotin system discussed above was used to evaluate the competitive effect of various peptides on the binding of TSP-1 and angiocidin. […] The scrambled peptide Val-Cys-Thr-Gly-Ser-Cys-Gly (SEQ ID NO: 21) and the d-orientation peptide d-Cys-Ser-Val-Thr-Cys-Gly (SEQ ID NO: 22) were used as negative controls.

receptor-TSP-1 complex [2] = target: T3, receptor-TSP-1 complex (Homo sapiens, UniProt P55036, INS254GER); assay: Affinity Sensor System: peptide competition of receptor binding to immobilized TSP-1; conditions: 10 fold molar excess of peptide
T3 construct: Full length cDNA cloned in the PBK-CMV vector was used as a template; 6xHis (pTrcHisA leader) (N); made in house; host or cells: bacteria (pTrcHisA vector)
T3 sequence (P55036 with tags, fused parts or gaps INS254GER): T1 sequence (P55036 with tags, fused parts or gaps INS254GER)
Procedure: as §1
(§2) About 1 μg of TSP-1 was coupled to the cuvette through its amino groups to COOH groups on the cuvette surface. Unreacted groups on the cuvette surface were then blocked with ethanolamine and albumin. […] A dissociation constant of […] was calculated from a plot of the pseudo first order rate constant for association versus the concentration of the receptor, as shown in FIG. 7. Instrument response vs time readings shown in FIG. 8, where the instrument response is proportional to the concentration of receptor-TSP-1 complex, were used to plot the data points on FIG. 7.
(§3) […] The peptides used were Val-Cys-His-Ser-Lys-Thr-Arg (SEQ ID NO: 8), Val-Cys(Acm)-His-Ser-Lys-Thr-Arg (SEQ ID NO: 9), and Pro-His-Ser-Arg-Asn (SEQ ID NO: 10). The first two peptides are derived from the binding portion of the receptor, where it interacts with the Cys-Ser-Val-Thr-Cys-Gly (SEQ ID NO: 1) portion of the TSP-1 protein. The third peptide is a control.

[3] = system: human umbilical vein endothelial cells (HUVEC); assay: ALAMAR BLUE cell viability assay; type: cell-based
Procedure: (§4) Bovine aortic endothelial cells (BAEC), human umbilical vein endothelial cells (HUVEC), fibroblast cells, A549 human lung carcinoma cells (A549), MDA-MB231 human breast carcinoma cells (MB231), MCF7 human breast carcinoma cells (MCF7) were treated with 37 μg/ml of receptor, or buffer alone, for 24 hours. Viability of the cells was measured using the ALAMAR BLUE™ assay, which measures the capacity of cells to metabolize the ALAMAR BLUE™ dye. The ALAMAR BLUE™ assay (available from Biosource International, Camarillo, Calif.) quantitatively measures the proliferation of cell lines and can establish the relative cytotoxicity of chemical agents. The assay incorporates a fluorometric/colorimetric growth indicator based on detection of metabolic activity. The system incorporates an oxidation-reduction (redox) indicator that both fluoresces and changes color in response to chemical reduction of growth medium resulting from cell growth. This causes the redox indicator to change from its oxidized, non-fluorescent, blue form to its reduced, fluorescent, red form. Data can be collected using either fluorescence-based instrumentation (530-560 nm excitation wavelength and 590 nm emission wavelength) or absorbance-based instrumentation (570 nm and 600 nm).
Similarly, the effect of receptor on viability of BAEC cells was compared to mouse Lewis lung carcinoma cells, using the same method.
The effect of angiocidin on HUVEC cell viability was evaluated, and FGF and TSP-1 were added to determine whether they ameliorated the angiocidin effect on cell viability. FGF (Fibroblast Growth Factor) is an endothelial cell mitogen, which promotes cell growth. […] TSP-1 was expected to reverse the inhibition of angiocidin; however, quantities added may have been insufficient to provide the correct molar ratio.

[4] = system: Bovine aortic endothelial cells (BAEC); assay: ALAMAR BLUE cell viability assay; type: cell-based; conditions: TSP-1 at 20 μg/ml and 5 μg/ml
Procedure: as §4
BAEC and BSM cells were treated with increasing concentrations of angiocidin (0, 0.625, 1.25, 2.5, 5, 15, 26 and 37 μg/ml) for 24 hours. Cell viability was measured using the ALAMAR BLUE Tm assay. […] In contrast, BSM cells are unaffected.
The methods of Example 21 were followed, except BAEC cells were used. Additionally, TSP-1 was added at both 20 μg/ml and 5 μg/ml.
As discussed in Example 19 above, angiocidin was added to BAEC cells. Fragments of angiocidin were added as well. […] GST was used as a negative control. V36-R42, the active site of the antisecretory factor, had no effect, illustrating that angiocidin plays a different role from antisecretory factor.
Bovine aortic endothelial cells (BAEC) were cultured overnight in serum-free media containing either 37 μg/ml his-tagged angiocidin or his-tagged GST. Both angiocidin and GST were expressed in bacteria transformed with the pTrcHisA expression vector and purified on nickel affinity chromatography under non-denaturing conditions. Viability was measured by the ALAMAR BLUE™ assay.
This study examined the effect of anti-angiocidin antibody on angiocidin-mediated inhibition of BAEC viability. BAEC were cultured overnight in serum-free media containing either 5 μg/ml angiocidin, 5 μg/ml angiocidin plus 100 μg/ml control IgG, or 5 μg/ml angiocidin plus 100 μg/ml anti-angiocidin IgG. Viability was measured using the ALAMAR BLUE™ assay, described above.
The endothelial cells (BAEC) were incubated overnight 37 μg/ml of the angiocidin, fragments, and GST. Viability was measured using the ALAMAR BLUE™ assay.

TSP-1 = TSP-1 (Homo sapiens, UniProt P07996); assay: Affinity Sensor System (resonant mirror biosensor): binding to TSP-1 coupled to cuvette; conditions: peptide alone, TSP-1 immobilized in cuvette
Procedure: as §1
1) kass[R][TSP-1]=kdiss[R-TSP-1] at equilibrium, where kass is the second order rate constant for association and kdiss is the first order rate constant for dissociation
2) KD=[R][TSP-1]/[R-TSP-1]=kdiss/kass
3) [R-TSP-1]t=[R-TSP-1]eq[1-exp(-kont)], where the instrument response measure in arc seconds is proportional to receptor-TSP-1 complex R-TSP-1].
4) kon=kass[L]+kdiss where kon is the pseudo-first order rate constant for receptor TSP-1 interaction.
as §2, §3

B16-F10 Melanoma Cells = assay: Cell adhesion to immobilized receptor peptides; type: cell-based, mouse; conditions: Example 12, FIG. 14
Procedure: For the adhesion assay, in a 96 well plate, duplicate wells were covered with either TSP-1 (40 μg/ml), fibronectin (40 μg/ml), or and 1% bovine serum albumin (BSA). The wells were dried out overnight and then blocked with BSA. 100 μl of a suspension containing 2×10^5 cells were plated in the protein covered wells and incubated at 37^□ C. for 20 minutes to 1 hour. The non-adherent cells were removed and the wells were washed with a Hepes buffer. The adherent cells were fixed with 2.5% glutaraldehyde for 10 minutes and stained with 0.2% Giemsa. The stain was washed off and the cells were counted in a field of 1 mm square. Cells adhering to BSA were considered background while cells adhering to fibronectin were the positive control.
The method of Example 12 was followed except the receptor peptides Val-Cys-His-Ser-Lys-Thr-Arg (SEQ ID NO: 8) and Val-Cys(Acm)-His-Ser-Lys-Thr-Arg (SEQ ID NO: […]) were immobilized on the plates. TSP-1 and fibronectin were also immobilized on plates, as well as negative control peptides (Ala-Ser-Val-Thr-Ala-Arg (SEQ ID NO: 11) and Pro-His-Ser-Arg-Asn (SEQ ID NO: 10)) and bovine serum albumin. […] This provides support for the theory that another protein may be associated with TSP-1 and its receptor, or that the receptor is released and rebound to the membrane of the cell by another protein.

receptor-TSP-1 complex [5] = assay: Affinity Sensor System: peptide competition of receptor binding to immobilized TSP-1; conditions: peptide:receptor 1000 and 100 molar ratio
Procedure: as §1, §2, §3

TSP-1, sequence (P07996 19-1170): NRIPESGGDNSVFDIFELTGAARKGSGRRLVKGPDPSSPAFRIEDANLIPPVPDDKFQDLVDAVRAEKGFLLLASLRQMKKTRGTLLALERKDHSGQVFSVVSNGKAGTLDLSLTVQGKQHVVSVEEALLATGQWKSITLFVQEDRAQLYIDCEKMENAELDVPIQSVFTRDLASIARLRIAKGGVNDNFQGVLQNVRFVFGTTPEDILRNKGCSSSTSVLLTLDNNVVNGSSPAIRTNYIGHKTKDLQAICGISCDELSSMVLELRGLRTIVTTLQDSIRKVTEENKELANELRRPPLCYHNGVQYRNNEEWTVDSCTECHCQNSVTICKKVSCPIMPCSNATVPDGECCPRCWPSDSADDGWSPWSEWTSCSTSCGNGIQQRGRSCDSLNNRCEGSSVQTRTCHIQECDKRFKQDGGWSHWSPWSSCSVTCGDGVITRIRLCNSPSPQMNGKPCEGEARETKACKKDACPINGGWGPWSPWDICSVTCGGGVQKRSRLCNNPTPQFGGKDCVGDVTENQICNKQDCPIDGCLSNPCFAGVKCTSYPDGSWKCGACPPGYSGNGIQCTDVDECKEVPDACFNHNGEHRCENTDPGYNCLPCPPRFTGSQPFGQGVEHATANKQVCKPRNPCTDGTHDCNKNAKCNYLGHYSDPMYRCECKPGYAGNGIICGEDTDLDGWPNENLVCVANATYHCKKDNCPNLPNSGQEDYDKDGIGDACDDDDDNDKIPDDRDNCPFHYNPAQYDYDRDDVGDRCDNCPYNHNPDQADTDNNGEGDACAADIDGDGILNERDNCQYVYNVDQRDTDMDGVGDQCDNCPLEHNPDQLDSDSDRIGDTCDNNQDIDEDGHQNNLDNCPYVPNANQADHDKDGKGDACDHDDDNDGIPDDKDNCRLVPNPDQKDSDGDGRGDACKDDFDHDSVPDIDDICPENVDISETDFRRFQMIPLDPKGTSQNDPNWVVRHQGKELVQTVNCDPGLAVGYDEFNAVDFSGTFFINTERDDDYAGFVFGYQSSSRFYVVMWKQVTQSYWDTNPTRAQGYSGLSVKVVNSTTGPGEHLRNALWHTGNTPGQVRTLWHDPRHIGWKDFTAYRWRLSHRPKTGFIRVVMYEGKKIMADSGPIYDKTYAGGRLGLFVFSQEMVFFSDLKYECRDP

## Cys(Acm)-Ser-Val-Thr-Cys(Acm)-Gly (C(Acm)SVTC(Acm)G)
receptor
  binding to the receptor: bind to the receptor
[1]
  peptide competition of TSP-1 receptor binding: inhibited binding
receptor-TSP-1 complex [2]
  extent of receptor binding, % of buffer control: 47%

## TSP-1: Thrombospondin, a cell adhesive protein and matrix molecule
receptor
  binding to the receptor: bind to the receptor
[3]; FGF 2 ng/ml, TSP-1 20 μg/ml
  cell growth, factor alone: stimulated cell growth above control
[3]; angiocidin 37 μg/ml plus FGF 2 ng/ml or TSP-1 20 μg/ml
  reversal of the angiocidin inhibition of viability: neither the addition of FGF or TSP-1 reversed the inhibition of angiocidin
[4]
  reversal of the angiocidin inhibition of viability: can ameliorate some of the inhibition of angiocidin

## VCHSKTR
TSP-1
  direct binding to immobilized TSP-1: bind directly to the immobilized TSP-1
B16-F10 Melanoma Cells
  cell adhesion to immobilized peptide: cause the cells to adhere to the plates, with similar affinity to the positive controls fibronectin and TSP-1
receptor-TSP-1 complex [5]
  inhibition of receptor binding to immobilized TSP-1: inhibits binding of the receptor with the immobilized TSP-1
